Drawing on the RNAGym collection of RNA variant scans (doi:10.7554/elife.80360), this text covers self-cleavage for 32 variants.

The chains are these.
B1: HDV Ribozyme (parent)
chain: GGCCGGCAUGGUCCCAGCCUCCUCGCUGGCGCCGGCUGGGCAACAUUCCGAGGGGACCGUCCCCUCGGUAAUGGCGAAUGGGACCCA

In this data set the parent is B1. The experiment in a line: self-cleavage, relative activity (ratio to wild type); higher = more cleavage; co-transcriptional.
As to GGCCGGCAUGGUCCCAACCUCCUCGCUGGCGCCGGCUGGGCAACAUUCCGCGGGGACCGUCCCCUCGGUAAUGGCGAAUGGGACCCA [G17A A51C], the self-cleavage turned out to be 0.755.

As for GGCCGGCAUGGUCCCAGCCUCCUCGCUGGGGCCGGCUGGGCAACAUUCCGAGGGGACCGUCCCCUCAGUAAUGGCGAAUGGGACCCA [C30G G67A], the self-cleavage was found to be 0.0287. AGCCGGCAUGGUCCCAGCCUCCUCGCUGGCGCCGGCUGGGCAACAUUCCGAGGGGACCGUCCCCUGGGUAAUGGCGAAUGGGACCCA [G1A C66G]: the self-cleavage was determined as 0.308. To GGCCGGCAUGGUCCCAGCCUCCUCGCUGGCGCCGGAUGGGCCACAUUCCGAGGGGACCGUCCCCUCGGUAAUGGCGAAUGGGACCCA [C36A A42C] belongs 0.0583. With GGCCGGCAUGGUCACAGCCUCCUCGCUGGCGCCGGCUGGGCAACAUUCCGAGGGGACCGUCCGCUCGGUAAUGGCGAAUGGGACCCA [C14A C63G], the self-cleavage stood at 0.935. In the case of GGCCGGCAUGGUCCCAGCCUCCUCGCUGGCGCUGGCCGGGCAACAUUCCGAGGGGACCGUCCCCUCGGUAAUGGCGAAUGGGACCCA [C33U U37C], the self-cleavage worked out at 0.923. In the case of GGCCGGCAUGGUCCCAGCCUCCUCGCUGGCGCCGGCUGGGCAAGAUUCCGAGGAGACCGUCCCCUCGGUAAUGGCGAAUGGGACCCA [C44G G54A], the self-cleavage was 0.831. With GGCCGGCAUGGUCCCAGCCUCCUCGCUGCCGCCGGCUGGGCAACAUUCCGAGGGGACCGUCCCCUCGGUAAUGGCGAAUGGGACGCA [G29C C85G] the figure was 0.0978. As to GGCCGGCAUGGUCCCAGCCUCCUCGCUGGCGCCGGCUGGGAAACAUUCCGAGGGGACCGUCCCCUCGGUAAUGGCGAAUGGGACCGA [C41A C86G], the self-cleavage is 0.739. On to GGCCGGCAUGGUCCCAGCCUCCUCGCUGGCGCCAGCUGGGCAACAUUCCGAGGGGACCGUCCCCUCGGUAAUGACGAAUGGGACCCA [G34A G74A], for which the self-cleavage is 0.0852. Regarding GGCCAGCAUGGUCCCAGCCUCCUCGCUGGCGCCGGCCGGGCAACAUUCCGAGGGGACCGUCCCCUCGGUAAUGGCGAAUGGGACCCA [G5A U37C], the self-cleavage is 0.764. Consider GGCCGGCAUGGUCCCAGCCUCCUCGCUAGCGCCGGCUGGGCAACAUUCCGAGGGGACCGUCCCCUCGGUAAUAGCGAAUGGGACCCA [G28A G73A], for which the self-cleavage is 0.112. With GGACGGCAUGGUCCCAGCCUCCUCGCUGGCGCCGGCUGGGCAACAUUCCGAGGGUACCGUCCCCUCGGUAAUGGCGAAUGGGACCCA [C3A G55U], the self-cleavage stood at 0.563. In the case of GGCCGGCAUGGUCCCAGGCUCCUCGCUGGCGCCGGCUGGGCAACAUCCCGAGGGGACCGUCCCCUCGGUAAUGGCGAAUGGGACCCA [C18G U47C], the self-cleavage was 0.185. In the case of CGCCGGCAUGGUCCCAGCCUCCUCGCUGGCGCCGGCUGGGCAACAUUCCGAGGGGACCGUCCCCUCGGUGAUGGCGAAUGGGACCCA [G1C A70G], the self-cleavage was determined as 0.453. In the case of GGACCGCAUGGUCCCAGCCUCCUCGCUGGCGCCGGCUGGGCAACAUUCCGAGGGGACCGUCCCCUCGGUAAUGGCGAAUGGGACCCA [C3A G5C], the self-cleavage stood at 0.0339. As to GGCCGGCAUUGUCCCAGCCUCCUCGCUGGCGCCGGCUGGGCAACAUUCCGAGGGGACCGUCCCCUCGGUAAUGGCCAAUGGGACCCA [G10U G76C], the self-cleavage worked out at 0.963. On to GGCCGGCAUGGUCCCUGCCUCCUCGCUGGCGCCGGCUGGGCAACAUUCCGAGGGGACGGUCCCCUCGGUAAUGGCGAAUGGGACCCA [A16U C58G], for which the self-cleavage was found to be 0.807. In the case of GGCAGGCAUAGUCCCAGCCUCCUCGCUGGCGCCGGCUGGGCAACAUUCCGAGGGGACCGUCCCCUCGGUAAUGGCGAAUGGGACCCA [C4A G10A], the self-cleavage worked out at 0.0554.

For GGCCGGCAUGGUCCCAGCCUCCUCGCUGGCGCCGGCUGGGCAACAUUCCGAGGGGACCGUCCCCUCAGUAAUGGCGAAUUGGACCCA [G67A G80U], the self-cleavage turned out to be 0.203. In the case of GGCCGGCAUGGUCCCAGCCUCCUCGCUGGCGCCGGCUGGGUAACAUUCCGAGGGGACCGUCCCCUCGGUAAUGGAGAAUGGGACCCA [C41U C75A], the self-cleavage worked out at 0.0665. For the variant GGCCGGCAUGGUCCCAUCCUCCUCGCUGGCGCCGGCUGGGUAACAUUCCGAGGGGACCGUCCCCUCGGUAAUGGCGAAUGGGACCCA [G17U C41U], the self-cleavage was 0.253.

GGCCGGCAUGGUCCCAGCCUCCUCGCUGGCGCCGGCUGGGCAACAUUCCGAGGGGACCGUCCCCUCGGGAAAGGCGAAUGGGACCCA [U69G U72A]: the self-cleavage was 0.369. With GGCCGGCAUGGUCCCAGCCACCUCGCUGGCGCCGGCUGGGCAACAUUCCGAGGGGACCGUCCCCCCGGUAAUGGCGAAUGGGACCCA [U20A U65C], the self-cleavage turned out to be 0.0639. With GGCCGGCAUGGUCCCACCCUCCUCGCUGGCGCCGGCUGGGCAACAUUCCGAGGGGACCGUCCCCUAGGUAAUGGCGAAUGGGACCCA [G17C C66A], the self-cleavage stood at 0.262.

For the variant AGCCGGCAUGGUCCCAGCCUCCUCGCUGGCGCCGGCUGGGCAACAUUCCGAGGGGACCGUCUCCUCGGUAAUGGCGAAUGGGACCCA [G1A C62U], the self-cleavage was 0.0791. Consider GGCCAGCAUGGUCCCAGCCUCCUCGCUGGCGCCGGCUGGGCAACAUUCCGAGGGGACCGUCCCCUCGCUAAUGGCGAAUGGGACCCA [G5A G68C], for which the self-cleavage turned out to be 0.17. For the variant GGACGGCAUGGUCCCAGCCUCCUCGCUGGCGCCGCCUGGGCAACAUUCCGAGGGGACCGUCCCCUCGGUAAUGGCGAAUGGGACCCA [C3A G35C], the self-cleavage was found to be 0.604. Regarding GGCCGUCAUGGUCCCAGCCUCCUCGCUGGCGCCGGCUGGGCAACAUUGCGAGGGGACCGUCCCCUCGGUAAUGGCGAAUGGGACCCA [G6U C48G], the self-cleavage is 0.374.

In the case of GGCCGGCAUGGUCCCAGCCGCCUCGCUGGCGCCGGCUGGGCAACAUUCCGAGGGGACCGUCCCCUGGGUAAUGGCGAAUGGGACCCA [U20G C66G], the self-cleavage was found to be 0.511.

GGCCAGCAUGGUCCCAGCCUCCUCGCUGGCGCCGGCUGGGCAACAUUACGAGGGGACCGUCCCCUCGGUAAUGGCGAAUGGGACCCA [G5A C48A]: the self-cleavage was found to be 0.0437. Regarding GGCCGGCAUGGUCCCAGCCUCCUAGCUGGCGCCGACUGGGCAACAUUCCGAGGGGACCGUCCCCUCGGUAAUGGCGAAUGGGACCCA [C24A G35A], the self-cleavage turned out to be 0.212.
